Data from US20070065890.

B1: baculovirus-expressed recombinant FLAG-SirT1 protein (protein)
chain: MADEAALALQPGGSPSAAGADREAASSPAGEPLRKRPRRDGPGLERSPGEPGGAAPEREVPAAARGCPGAAAAALWREAEAEAAAAGGEQEAQATAAAGEGDNGPGLQGPSREPPLADNLYDEDDDDEGEEEEEAAAAAIGYRDNLLFGDEIITNGFHSCESDEEDRASHASSSDWTPRPRIGPYTFVQQHLMIGTDPRTILKDLLPETIPPPELDDMTLWQIVINILSEPPKRKKRKDINTIEDAVKLLQECKKIIVLTGAGVSVSCGIPDFRSRDGIYARLAVDFPDLPDPQAMFDIEYFRKDPRPFFKFAKEIYPGQFQPSLCHKFIALSDKEGKLLRNYTQNIDTLEQVAGIQRIIQCHGSFATASCLICKYKVDCEAVRGDIFNQVVPRCPRCPADEPLAIMKPEIVFFGENLPEQFHRAMKYDKDEVDLLIVIGSSLKVRPVALIPSSIPHEVPQILINREPLPHLHFDVELLGDCDVIINELCHRLGGEYAKLCCNPVKLSEITEKPPRTQKELAYLSELPPTPLHVSEDSSSPERTSPPDSSVIVTLLDQAAKSNDDLDVSESKGCMEEKPQEVQTSRNVESIAEQMENPDLKNVGSSTGEKNERTSVAGTVRKCWPNRVAKEQISRRLDGNQYLFLPPNRYIFHGAEVYSDSEDDVLSSSSCGSNSDSGTCQSPSLEEPMEDESEIEEFYNGLEDEPDVPERAGGAGFGTDGDDQEAINEAISVKQEVTDMNYPSNKS
B2: recombinant SirT2 (protein)
chain: MAEPDPSHPLETQAGKVQEAQDSDSDSEGGAAGGEADMDFLRNLFSQTLSLGSQKERLLDELTLEGVARYMQSERCRRVICLVGAGISTSAGIPDFRSPSTGLYDNLEKYHLPYPEAIFEISYFKKHPEPFFALAKELYPGQFKPTICHYFMRLLKDKGLLLRCYTQNIDTLERIAGLEQEDLVEAHGTFYTSHCVSASCRHEYPLSWMKEKIFSEVTPKCEDCQSLVKPDIVFFGESLPARFFSCMQSDFLKVDLLLVMGTSLQVQPFASLISKAPLSTPRLLINKEKAGQSDPFLGMIMGLGGGMDFDSKKAYRDVAWLGECDQGCLALAELLGWKKELEDLVRREHASIDAQSGAGVPNPSTSASPKKSPPPAKDEARTTEREKPQ
B3: recombinant SirT3 (protein)
chain: MAFWGWRAAAALRLWGRVVERVEAGGGVGPFQACGCRLVLGGRDDVSAGLRGSHGARGEPLDPARPLQRPPRPEVPRAFRRQPRAAAPSFFFSSIKGGRRSISFSVGASSVVGSGGSSDKGKLSLQDVAELIRARACQRVVVMVGAGISTPSGIPDFRSPGSGLYSNLQQYDLPYPEAIFELPFFFHNPKPFFTLAKELYPGNYKPNVTHYFLRLLHDKGLLLRLYTQNIDGLERVSGIPASKLVEAHGTFASATCTVCQRPFPGEDIRADVMADRVPRCPVCTGVVKPDIVFFGEPLPQRFLLHVVDFPMADLLLILGTSLEVEPFASLTEAVRSSVPRLLINRDLVGPLAWHPRSRDVAQLGDVVHGVESLVELLGWTEEMRDLVQRETGKLDGPDK

How the values were obtained:
[1] = biological target: histone H1 (purified calf thymus H1)
[2] = biological target: purified recombinant HA-H1b (expressed in E. coli), P10412
[3] = biological target: H1 histones isolated from cells treated with TSA and nicotinamide, P10412
Sequence of H1 histones isolated from cells treated with TSA and nicotinamide, P10412 (P10412 whole entry, looked up): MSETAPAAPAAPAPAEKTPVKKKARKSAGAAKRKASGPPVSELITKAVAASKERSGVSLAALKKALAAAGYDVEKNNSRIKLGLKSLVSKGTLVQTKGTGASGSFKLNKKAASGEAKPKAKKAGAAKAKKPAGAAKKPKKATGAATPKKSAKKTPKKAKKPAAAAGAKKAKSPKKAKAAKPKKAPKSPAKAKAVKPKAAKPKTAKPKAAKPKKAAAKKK

Sequence of purified recombinant HA-H1b (expressed in E. coli), P10412 (P10412 whole entry, looked up): as above

| Protein | nicotinamide exchange reaction (NER) with H1 as acetylated substrate [1] | release of [3H]-acetyl label from p300-acetylated H1 [1] | release of [3H]-acetyl label from p300-acetylated recombinant H1b [2] | western blot with the acetyl H1-K26 antibody after treatment with SirT1 [3] |
| --- | --- | --- | --- | --- |
| B1 | Histone H1 served as substrate in the SirT1-dependent NER assay | SirT1 -released up to 70% of the total label | The same result was observed using recombinant human H1b | resulted in decreased immunoreactivity |
| B2 | – | – | SirT2 or SirT3 failed to significantly deacetylate H1b | – |
| B3 | – | – | SirT2 or SirT3 failed to significantly deacetylate H1b | – |
